Results as given in the supplement of paper PMC7125110.
± gives the standard error. For some assays here: Variants at the floor of the assay were thinned out.

B1: glmS ribozyme (parent)
chain: AUAAAAGCGCCAGAACUACAGAAAUGUAGUUGACGAGGAGGAGGUUUAUCGAAUUUUCGGCGGAUGCCUCCAAA

Key:
Conditions in all cases: with glucosamine-6-phosphate
glucosamine-6-phosphate [1] = variants of: B1; assay: kcat; higher = faster cleavage; RNA array
Summary of the method: (§1)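 On sequenced MiSeq chips, barcoded ribozyme variants were made in situ by E. coli RNA polymerase and followed at 37 °C through a hybridised Cy3 probe. Glucosamine-6-phosphate was flowed in at 40 μM to 10 mM in HEPES/KCl/Mg(OAc)2 buffer. Exponential fits to normalised per-tile medians gave kobs, and weighted Michaelis–Menten fits gave kcat and KM.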

glucosamine-6-phosphate [2] = variants of: B1; assay: KM; higher = weaker cofactor use; RNA array
Summary of the method: as §1

glucosamine-6-phosphate [3] = variants of: B1; assay: self-cleavage kobs at 40 uM GlcN6P; higher = faster cleavage; RNA array
Summary of the method: as §1

glucosamine-6-phosphate [4] = variants of: B1; assay: self-cleavage kobs at 160 uM GlcN6P; higher = faster cleavage; RNA array
Summary of the method: as §1

glucosamine-6-phosphate [5] = variants of: B1; assay: self-cleavage kobs at 640 uM GlcN6P; higher = faster cleavage; RNA array
Summary of the method: as §1

glucosamine-6-phosphate [6] = variants of: B1; assay: self-cleavage kobs at 2500 uM GlcN6P; higher = faster cleavage; RNA array
Summary of the method: as §1

glucosamine-6-phosphate [7] = variants of: B1; assay: self-cleavage kobs at 10000 uM GlcN6P; higher = faster cleavage; RNA array
Summary of the method: as §1

Variant | kcat (glucosamine-6-phosphate [1]) | KM (glucosamine-6-phosphate [2]) | self-cleavage kobs at 40 uM GlcN6P (glucosamine-6-phosphate [3]) | self-cleavage kobs at 160 uM GlcN6P (glucosamine-6-phosphate [4]) | self-cleavage kobs at 640 uM GlcN6P (glucosamine-6-phosphate [5]) | self-cleavage kobs at 2500 uM GlcN6P (glucosamine-6-phosphate [6]) | self-cleavage kobs at 10000 uM GlcN6P (glucosamine-6-phosphate [7])
U54A U56G | 0.0107 ± 0.0029 s⁻¹ | 1740 ± 650 µM | 0.000226 ± 4.9e-05 s⁻¹ | 0.000857 ± 0.00017 s⁻¹ | 0.00363 ± 0.00057 s⁻¹ | 0.00548 ± 0.00089 s⁻¹ | 0.0131 ± 0.0038 s⁻¹
A53C U65A C70A C71A | 1.25e-05 ± 4e-06 s⁻¹ | – | – | – | – | – | –
G51A C68A | 2.97e-05 ± 4.5e-06 s⁻¹ | – | – | – | – | – | –
C50G U54A | 3.07e-05 ± 1e-05 s⁻¹ | – | 2.88e-05 ± 1.2e-05 s⁻¹ | 5.21e-05 ± 1.6e-05 s⁻¹ | – | 5.55e-05 ± 2.3e-05 s⁻¹ | –
A53G U56A | 0.0133 ± 0.0047 s⁻¹ | 1830 ± 890 µM | 0.000437 ± 9e-05 s⁻¹ | 0.00116 ± 0.00021 s⁻¹ | 0.00273 ± 0.00051 s⁻¹ | 0.00663 ± 0.0019 s⁻¹ | 0.0137 ± 0.0026 s⁻¹
G51A C70U | 1.48e-05 ± 3.4e-06 s⁻¹ | – | – | – | – | – | –
U54G A64U | 9.79e-05 ± 1.5e-05 s⁻¹ | – | – | – | 1.94e-05 ± 7.4e-06 s⁻¹ | 7.47e-05 ± 9.1e-06 s⁻¹ | 8.01e-05 ± 8e-06 s⁻¹
U54G G66U | 0.00193 ± 0.00025 s⁻¹ | 1570 ± 340 µM | 5.67e-05 ± 5.9e-06 s⁻¹ | 0.000183 ± 2.7e-05 s⁻¹ | 0.000509 ± 4.8e-05 s⁻¹ | 0.000956 ± 0.00014 s⁻¹ | 0.00181 ± 0.00013 s⁻¹
C50G G63C | 2.84e-05 ± 1.1e-05 s⁻¹ | – | – | 3.67e-05 ± 1.6e-05 s⁻¹ | – | – | –
G51U C71G | 1.29e-05 ± 2.7e-06 s⁻¹ | – | – | – | – | – | –
A53C U54C | 0.00131 ± 0.00043 s⁻¹ | 1870 ± 890 µM | 2.24e-05 ± 9.7e-06 s⁻¹ | 9.33e-05 ± 1.9e-05 s⁻¹ | 0.000355 ± 6.3e-05 s⁻¹ | 0.0011 ± 0.00018 s⁻¹ | 0.000805 ± 0.00023 s⁻¹
U54G U56A G66A | 0.00395 ± 0.00074 s⁻¹ | 1470 ± 370 µM | 0.000108 ± 1.7e-05 s⁻¹ | 0.000344 ± 5.5e-05 s⁻¹ | 0.00162 ± 0.00028 s⁻¹ | 0.00236 ± 0.00049 s⁻¹ | 0.00335 ± 0.00067 s⁻¹
A52G A53G | 0.00183 ± 0.00052 s⁻¹ | 3690 ± 1700 µM | – | 0.000131 ± 3e-05 s⁻¹ | 0.000264 ± 5.9e-05 s⁻¹ | 0.000638 ± 0.0001 s⁻¹ | 0.00145 ± 0.0002 s⁻¹
C50U C68A | 3.06e-05 ± 9.8e-06 s⁻¹ | – | – | – | 4.9e-05 ± 1.9e-05 s⁻¹ | 3.28e-05 ± 1.5e-05 s⁻¹ | –
U54G U56A G63C | < 1e-05 s⁻¹ | – | < 1e-05 s⁻¹ | < 1e-05 s⁻¹ | – | – | –
A53U C58G | 9.99e-05 ± 7.2e-06 s⁻¹ | 1390 ± 370 µM | – | – | 2.6e-05 ± 9.5e-06 s⁻¹ | 7.16e-05 ± 1e-05 s⁻¹ | 8.57e-05 ± 8e-06 s⁻¹

Variant | kcat (glucosamine-6-phosphate [1]) | KM (glucosamine-6-phosphate [2]) | self-cleavage kobs at 40 uM GlcN6P (glucosamine-6-phosphate [3]) | self-cleavage kobs at 160 uM GlcN6P (glucosamine-6-phosphate [4]) | self-cleavage kobs at 640 uM GlcN6P (glucosamine-6-phosphate [5]) | self-cleavage kobs at 2500 uM GlcN6P (glucosamine-6-phosphate [6]) | self-cleavage kobs at 10000 uM GlcN6P (glucosamine-6-phosphate [7])
G51A U54A | < 1e-05 s⁻¹ | – | – | – | – | – | –
A52G C71G | 0.00014 ± 1.4e-05 s⁻¹ | 431 ± 170 µM | – | 4.09e-05 ± 1.4e-05 s⁻¹ | 7.87e-05 ± 1.1e-05 s⁻¹ | 0.000157 ± 2.2e-05 s⁻¹ | 0.000127 ± 1.2e-05 s⁻¹
A52G C71U | 0.00186 ± 0.00014 s⁻¹ | 3440 ± 380 µM | 2.74e-05 ± 6e-06 s⁻¹ | 7.83e-05 ± 8.6e-06 s⁻¹ | 0.000293 ± 2.7e-05 s⁻¹ | 0.00078 ± 0.00015 s⁻¹ | 0.00138 ± 0.00012 s⁻¹
A52G C71A | 0.000593 ± 8.1e-05 s⁻¹ | 3190 ± 730 µM | – | 3.52e-05 ± 1.4e-05 s⁻¹ | 9.96e-05 ± 1.3e-05 s⁻¹ | 0.000247 ± 3.1e-05 s⁻¹ | 0.000466 ± 5.9e-05 s⁻¹
C50U U65G | < 1e-05 s⁻¹ | – | < 1e-05 s⁻¹ | – | – | – | –
C50U C71G | 3.46e-05 ± 1.4e-05 s⁻¹ | – | – | – | 4.43e-05 ± 1e-05 s⁻¹ | – | –
A52U A53U | 0.000212 ± 8.7e-06 s⁻¹ | 4210 ± 360 µM | < 1e-05 s⁻¹ | – | 2.65e-05 ± 1e-05 s⁻¹ | 8.03e-05 ± 1.2e-05 s⁻¹ | 0.000148 ± 1.7e-05 s⁻¹
U55G G66A | 0.0134 ± 0.004 s⁻¹ | 1790 ± 770 µM | 0.000461 ± 7.7e-05 s⁻¹ | 0.000877 ± 0.00021 s⁻¹ | 0.00303 ± 0.00072 s⁻¹ | 0.00661 ± 0.0022 s⁻¹ | 0.0124 ± 0.002 s⁻¹
C50G U69G | 0.000141 ± 7.4e-06 s⁻¹ | – | 0.000135 ± 1.6e-05 s⁻¹ | 0.000165 ± 3e-05 s⁻¹ | 0.000151 ± 2.4e-05 s⁻¹ | 0.000126 ± 2e-05 s⁻¹ | 0.000141 ± 1.5e-05 s⁻¹
U55A | 0.0533 ± 0.012 s⁻¹ | 1770 ± 530 µM | 0.00134 ± 4.9e-05 s⁻¹ | 0.0039 ± 0.00028 s⁻¹ | 0.0133 ± 0.00067 s⁻¹ | 0.025 ± 0.0015 s⁻¹ | 0.0555 ± 0.0025 s⁻¹
U55G | 0.0523 ± 0.0043 s⁻¹ | 2390 ± 240 µM | 0.000889 ± 2.1e-05 s⁻¹ | 0.00312 ± 0.00021 s⁻¹ | 0.0103 ± 0.00037 s⁻¹ | 0.0271 ± 0.0015 s⁻¹ | 0.0436 ± 0.0021 s⁻¹
U55C | 0.0394 ± 0.0032 s⁻¹ | 2000 ± 200 µM | 0.000797 ± 1.8e-05 s⁻¹ | 0.0027 ± 0.00018 s⁻¹ | 0.0091 ± 0.00035 s⁻¹ | 0.0201 ± 0.001 s⁻¹ | 0.0349 ± 0.0014 s⁻¹
C50U U55G | 4.41e-05 ± 2.5e-06 s⁻¹ | 304 ± 130 µM | – | – | 2.74e-05 ± 1.4e-05 s⁻¹ | 4.31e-05 ± 7.9e-06 s⁻¹ | 4.07e-05 ± 6.8e-06 s⁻¹
A53U G59A | 4.83e-05 ± 6.3e-06 s⁻¹ | – | < 1e-05 s⁻¹ | – | – | 3.5e-05 ± 1.2e-05 s⁻¹ | 4.2e-05 ± 8.2e-06 s⁻¹
A53G C61U | 2.57e-05 ± 1e-06 s⁻¹ | – | < 1e-05 s⁻¹ | – | – | – | –
G51A C67U | < 1e-05 s⁻¹ | – | < 1e-05 s⁻¹ | – | – | – | –
